Patent US20230416345A1, “NEW TYPE II COLLAGEN BINDING PROTEINS” (Navigo Proteins GmbH, priority 2020, published 2023)

What was measured:
[1] = Soluble expression in Escherichia coli BL21(DE3); assay type: physicochemical; details: expression in E. coli BL21(DE3)
Procedure: Variants with affinity tag were expressed in Escherichia coli BL21(DE3) using a low copy plasmid system under regulation of a T7 promoter. Proteins were produced in soluble form after induction by lactose included in the medium (autoinduction medium). BL21 (DE3) competent cells were transformed with the expression plasmid, spread onto selective agar plates (kanamycin) and incubated overnight at 37° C. Precultures were inoculated from single colony in 3 ml 2×YT medium supplemented with 50 μg/ml kanamycin and cultured for 6 hours at 37° C. at 200 rpm in a conventional orbital shaker in culture tubes. […] Cultures were transferred to an orbital shaker and incubated at 30° C. and 200 rpm. […] Before the harvest, the OD600 was measured, samples adjusted to 0.6/OD600 were withdrawn, pelleted and frozen at −20° C. […]
Proteins with affinity tag were purified by affinity chromatography and size exclusion. […] Homogenous species of all purified ligands were obtained; no aggregation was detected. Following SOS-PAGE analysis positive fractions were pooled and their protein concentrations were measured. […] Protein concentrations were determined by absorbance measurement at 280 nm using the molar absorbent coefficient. […] Binding of Collagen II was evaluated by SPR measurements using a Biacore 3000 system. […]

[2] = target: extradomain B of fibronectin (Homo sapiens, UniProt P02751); test: SPR control extradomain B of fibronectin; assay type: binding
extradomain B of fibronectin, sequence (P02751 1271-1359 limits assumed): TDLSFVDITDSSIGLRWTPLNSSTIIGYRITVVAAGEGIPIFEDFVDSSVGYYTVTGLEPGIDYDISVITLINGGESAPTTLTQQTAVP
Procedure: (§1) The purified proteins were immobilized on a CM-5 sensor chip (GE Healthcare) using NHS/EDC after PDEA activation resulting in 110-140 RU with a Biacore 3000 system (GE Healthcare). The chip was equilibrated with SPR running buffer (PBS 0.05% Tween pH 7.3). Upon binding, target analyte was accumulated on the surface increasing the refractive index. This change in the refractive index was measured in real time and plotted as response or resonance units versus time. The analytes were applied to the chip in serial dilutions with a flow rate of 30 μl/min. The association was performed for 120 seconds and the dissociation for 120 seconds. After each run, the chip surface was regenerated with 30 μl regeneration buffer (10 mM glycine pH 2.0) and equilibrated with running buffer.
(§2) Binding studies were carried out by the use of the BIAcore 3000 (GE Healthcare); data evaluation was operated via the BIAevaluation 3.0 software, provided by the manufacturer, using the Langmuir 1:1 model (RI=0). Evaluated dissociation constants (KD) were standardized against the immobilized protein and indicated. Shown is the change in refractive index measured in real time and plotted as response or resonance unit [RU] versus time [sec].

[3] = target: T1, human collagen type I (h Col I) (Homo sapiens, UniProt P02452+P08123); test: ELISA specificity vs human collagen type I; assay type: binding
T1 construct: purchased Sigma C5483-1MG
T1 sequence (P02452 162-1218 limits assumed): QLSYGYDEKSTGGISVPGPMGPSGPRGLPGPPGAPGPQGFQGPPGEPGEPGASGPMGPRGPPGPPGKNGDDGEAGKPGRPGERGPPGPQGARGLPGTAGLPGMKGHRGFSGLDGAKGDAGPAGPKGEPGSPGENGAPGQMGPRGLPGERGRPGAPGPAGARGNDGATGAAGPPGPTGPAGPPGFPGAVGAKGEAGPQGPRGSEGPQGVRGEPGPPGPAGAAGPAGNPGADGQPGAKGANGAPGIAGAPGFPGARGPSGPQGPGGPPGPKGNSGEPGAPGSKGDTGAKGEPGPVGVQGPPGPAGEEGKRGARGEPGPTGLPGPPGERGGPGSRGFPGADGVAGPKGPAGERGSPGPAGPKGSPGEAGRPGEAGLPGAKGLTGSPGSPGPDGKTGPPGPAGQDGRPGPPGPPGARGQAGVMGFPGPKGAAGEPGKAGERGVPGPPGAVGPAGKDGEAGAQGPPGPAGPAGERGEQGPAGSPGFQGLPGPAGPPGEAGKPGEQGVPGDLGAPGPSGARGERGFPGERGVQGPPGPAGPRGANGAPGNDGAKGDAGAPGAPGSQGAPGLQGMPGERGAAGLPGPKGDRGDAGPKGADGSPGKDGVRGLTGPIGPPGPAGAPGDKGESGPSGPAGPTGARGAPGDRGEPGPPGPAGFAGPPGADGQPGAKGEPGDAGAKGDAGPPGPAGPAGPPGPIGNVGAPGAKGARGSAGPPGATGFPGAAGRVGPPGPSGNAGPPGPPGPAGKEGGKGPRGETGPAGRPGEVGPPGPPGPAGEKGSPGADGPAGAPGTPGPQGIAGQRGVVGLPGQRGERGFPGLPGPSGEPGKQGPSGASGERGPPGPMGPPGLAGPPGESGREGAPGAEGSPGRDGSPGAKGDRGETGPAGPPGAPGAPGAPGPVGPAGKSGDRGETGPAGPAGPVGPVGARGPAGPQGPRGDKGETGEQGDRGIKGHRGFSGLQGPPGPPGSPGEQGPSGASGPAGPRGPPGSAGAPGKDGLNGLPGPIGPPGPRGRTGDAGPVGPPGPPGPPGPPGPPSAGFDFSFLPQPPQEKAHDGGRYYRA
T1 sequence (P08123 80-1119 limits assumed): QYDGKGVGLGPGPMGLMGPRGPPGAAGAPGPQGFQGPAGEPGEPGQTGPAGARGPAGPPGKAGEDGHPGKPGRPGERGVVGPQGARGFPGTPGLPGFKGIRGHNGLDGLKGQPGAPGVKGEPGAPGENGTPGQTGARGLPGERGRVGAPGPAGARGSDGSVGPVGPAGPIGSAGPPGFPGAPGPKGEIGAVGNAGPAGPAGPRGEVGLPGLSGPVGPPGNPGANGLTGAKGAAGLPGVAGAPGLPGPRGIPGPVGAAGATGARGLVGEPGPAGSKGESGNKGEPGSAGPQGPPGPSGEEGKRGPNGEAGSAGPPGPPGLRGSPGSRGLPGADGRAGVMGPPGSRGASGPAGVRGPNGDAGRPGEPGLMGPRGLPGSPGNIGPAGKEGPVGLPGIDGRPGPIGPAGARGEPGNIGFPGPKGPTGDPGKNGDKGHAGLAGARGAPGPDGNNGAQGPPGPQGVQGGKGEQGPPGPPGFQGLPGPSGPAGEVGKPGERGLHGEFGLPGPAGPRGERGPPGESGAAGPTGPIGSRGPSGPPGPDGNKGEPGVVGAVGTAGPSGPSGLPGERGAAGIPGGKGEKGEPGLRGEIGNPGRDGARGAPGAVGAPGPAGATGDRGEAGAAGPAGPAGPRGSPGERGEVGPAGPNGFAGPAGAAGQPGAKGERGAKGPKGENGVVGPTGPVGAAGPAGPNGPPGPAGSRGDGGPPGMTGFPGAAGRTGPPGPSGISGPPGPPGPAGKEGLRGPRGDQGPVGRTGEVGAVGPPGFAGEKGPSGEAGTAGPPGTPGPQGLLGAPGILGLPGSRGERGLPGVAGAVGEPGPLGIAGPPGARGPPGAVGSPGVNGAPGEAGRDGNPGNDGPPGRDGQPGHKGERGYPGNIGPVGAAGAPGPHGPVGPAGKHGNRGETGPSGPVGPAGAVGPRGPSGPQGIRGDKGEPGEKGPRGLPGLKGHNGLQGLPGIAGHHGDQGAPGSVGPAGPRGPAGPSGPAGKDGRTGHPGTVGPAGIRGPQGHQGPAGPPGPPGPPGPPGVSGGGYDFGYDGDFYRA
Procedure: (§3) High binding plates (Greiner, 781061) were immobilized with 2.5 μg/ml recombinant human collagen type II (h Col II, Chondrex, CHX-20051), rabbit collagen type II (rbCol II, prepared from rabbit eyes), porcine collagen type II (p Col II, prepared from porcine eyes), human collagen type I, (h Col I, Sigma, C5483-1MG), human collagen type V (h Col V, Abcam, ab7537), human collagen type III (h Col Ill, Abcam, ab7535) and 67B89 (domain of fibronectin, produced in E. coli) respectively over night at 4° C. ELISA-plates were washed 3 times with PBST (PBS+ 0.1% Tween) and blocked with 3% BSA/0.5% Tween/PBS 2 h at RT. After washing with PBST, dilution series of 1.1 μM to 7×10^−4 nM of dimers (CID 211999, CID 212000), dilution series of 100 nM to 7×10^−6 nM of tetramers (CID 212001 and CID 212704) and dilution series of 10 μM to 2 nM of dimer (CID 212705) were incubated on ELISA-plates 1 h at rt. Plates were washed with PBST and incubated with biotinylated anti-StrepTag-ab (Antikörper-online, ABIN1573895) with a dilution of 1:10.000 for 1 h at rt. The binding was visualized with a-rabbit-IgG-HRP (Sigma, A9169) with a dilution of 1:10.000 and as substrate TMB Plus von KEM EN TEC Diagnostic, Kat-Nr. 4395.

[4] = target: T2, recombinant human collagen type II (h Col II) (Homo sapiens, UniProt P02458); test: KD-determination by ELISA vs human collagen type II; assay type: binding
T2 construct: purchased Chondrex CHX-20051
T2 sequence (P02458 182-1241): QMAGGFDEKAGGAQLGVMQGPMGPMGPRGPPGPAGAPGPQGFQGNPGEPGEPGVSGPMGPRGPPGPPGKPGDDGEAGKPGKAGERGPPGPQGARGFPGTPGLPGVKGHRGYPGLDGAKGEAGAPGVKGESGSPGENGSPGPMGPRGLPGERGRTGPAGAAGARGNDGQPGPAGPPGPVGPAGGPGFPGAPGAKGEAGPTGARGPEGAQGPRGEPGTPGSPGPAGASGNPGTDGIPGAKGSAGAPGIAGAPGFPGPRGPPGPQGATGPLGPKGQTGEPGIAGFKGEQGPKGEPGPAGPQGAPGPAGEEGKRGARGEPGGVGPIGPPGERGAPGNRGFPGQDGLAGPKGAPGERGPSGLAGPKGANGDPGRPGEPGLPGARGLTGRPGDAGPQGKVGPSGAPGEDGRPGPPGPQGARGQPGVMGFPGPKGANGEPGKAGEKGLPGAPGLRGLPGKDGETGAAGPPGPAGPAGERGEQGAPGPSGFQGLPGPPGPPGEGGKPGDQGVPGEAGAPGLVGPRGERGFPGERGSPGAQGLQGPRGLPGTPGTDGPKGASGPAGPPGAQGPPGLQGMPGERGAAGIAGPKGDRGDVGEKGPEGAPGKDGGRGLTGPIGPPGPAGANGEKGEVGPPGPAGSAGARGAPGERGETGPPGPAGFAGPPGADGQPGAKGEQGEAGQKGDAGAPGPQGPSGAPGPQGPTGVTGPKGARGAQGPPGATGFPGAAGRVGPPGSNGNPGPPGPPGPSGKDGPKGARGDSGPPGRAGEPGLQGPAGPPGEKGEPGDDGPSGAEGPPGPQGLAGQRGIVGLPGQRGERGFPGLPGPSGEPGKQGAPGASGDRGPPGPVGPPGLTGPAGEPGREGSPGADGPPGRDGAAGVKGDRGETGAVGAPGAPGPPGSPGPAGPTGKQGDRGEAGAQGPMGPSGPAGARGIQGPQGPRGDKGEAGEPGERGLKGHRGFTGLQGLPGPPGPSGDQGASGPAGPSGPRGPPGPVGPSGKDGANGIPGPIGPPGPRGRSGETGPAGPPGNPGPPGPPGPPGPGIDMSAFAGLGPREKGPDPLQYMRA
Procedure: as §3

BSA = BSA (Bos taurus, UniProt P02769); test: SPR control BSA; assay type: binding
BSA, sequence (P02769 25-607): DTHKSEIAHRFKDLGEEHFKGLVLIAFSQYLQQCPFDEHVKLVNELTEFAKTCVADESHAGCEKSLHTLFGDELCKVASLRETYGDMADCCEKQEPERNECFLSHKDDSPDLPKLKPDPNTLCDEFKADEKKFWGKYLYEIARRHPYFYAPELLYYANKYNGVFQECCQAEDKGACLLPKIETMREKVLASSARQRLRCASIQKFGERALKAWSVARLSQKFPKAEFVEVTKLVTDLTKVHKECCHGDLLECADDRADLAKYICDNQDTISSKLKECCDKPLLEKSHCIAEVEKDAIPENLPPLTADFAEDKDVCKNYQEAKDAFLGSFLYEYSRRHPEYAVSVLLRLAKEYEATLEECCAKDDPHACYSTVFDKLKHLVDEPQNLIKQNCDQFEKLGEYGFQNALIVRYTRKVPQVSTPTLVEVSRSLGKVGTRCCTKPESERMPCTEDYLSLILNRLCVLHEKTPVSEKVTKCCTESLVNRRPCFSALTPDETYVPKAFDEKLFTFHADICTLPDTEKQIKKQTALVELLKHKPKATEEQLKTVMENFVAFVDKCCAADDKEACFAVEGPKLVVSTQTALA
Procedure: as §1, §2

human collagen type III = target: T3, human collagen type III (Homo sapiens, UniProt P02461); test: ELISA specificity vs human collagen type III; assay type: binding
T3 construct: purchased Abcam ab7535
T3 sequence (P02461 154-1221 limits assumed): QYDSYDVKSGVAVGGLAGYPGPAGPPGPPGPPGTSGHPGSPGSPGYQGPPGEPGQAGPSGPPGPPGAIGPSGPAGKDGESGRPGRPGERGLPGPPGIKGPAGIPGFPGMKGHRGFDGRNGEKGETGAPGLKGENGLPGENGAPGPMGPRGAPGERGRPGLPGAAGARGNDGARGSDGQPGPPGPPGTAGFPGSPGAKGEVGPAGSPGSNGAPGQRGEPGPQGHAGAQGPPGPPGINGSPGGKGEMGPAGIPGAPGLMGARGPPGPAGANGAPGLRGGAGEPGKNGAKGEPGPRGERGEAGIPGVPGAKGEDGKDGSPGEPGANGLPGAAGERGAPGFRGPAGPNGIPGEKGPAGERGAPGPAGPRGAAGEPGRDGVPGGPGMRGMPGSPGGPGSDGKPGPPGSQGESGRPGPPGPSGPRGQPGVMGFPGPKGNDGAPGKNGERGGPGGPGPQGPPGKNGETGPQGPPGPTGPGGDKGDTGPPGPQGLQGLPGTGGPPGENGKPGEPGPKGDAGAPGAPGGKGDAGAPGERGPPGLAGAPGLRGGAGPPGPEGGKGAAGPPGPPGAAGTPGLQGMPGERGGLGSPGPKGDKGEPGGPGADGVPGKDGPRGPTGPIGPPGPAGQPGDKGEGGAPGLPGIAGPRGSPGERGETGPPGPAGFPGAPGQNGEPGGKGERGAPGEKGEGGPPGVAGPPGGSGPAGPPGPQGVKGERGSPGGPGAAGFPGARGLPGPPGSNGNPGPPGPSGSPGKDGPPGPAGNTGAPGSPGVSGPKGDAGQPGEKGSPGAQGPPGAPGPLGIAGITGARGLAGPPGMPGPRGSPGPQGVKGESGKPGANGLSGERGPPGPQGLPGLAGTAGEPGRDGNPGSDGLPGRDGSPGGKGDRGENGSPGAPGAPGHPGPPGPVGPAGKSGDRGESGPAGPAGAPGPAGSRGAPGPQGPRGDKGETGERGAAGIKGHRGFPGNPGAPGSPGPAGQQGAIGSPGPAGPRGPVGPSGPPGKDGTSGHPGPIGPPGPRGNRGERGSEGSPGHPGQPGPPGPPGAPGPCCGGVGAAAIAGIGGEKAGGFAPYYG
Procedure: as §3

Type I collagen = Type I collagen (Homo sapiens, UniProt P02452+P08123); test: SPR specificity vs Type I collagen; assay type: binding
Type I collagen, sequence (P02452 162-1218 limits assumed): as the sequence (P02452 162-1218 limits assumed) above
Type I collagen, sequence (P08123 80-1119 limits assumed): as the sequence (P08123 80-1119 limits assumed) above
Procedure: as §1, §2

Type III collagen = target: T4, Type III collagen (Homo sapiens, UniProt P02461); test: SPR specificity vs Type III collagen; assay type: binding
T4 sequence (P02461 154-1221 limits assumed): T3 sequence (P02461 154-1221 limits assumed)
Procedure: as §1, §2

Substance | Solubility Soluble expression [1] [%] | Binding to control extradomain B of fibronectin (SPR) [2] | binding to type I collagen (ELISA) [3] | binding vs human type II collagen (ELISA, words) [4] | Binding to control BSA (SPR) (BSA) | binding to type III collagen (ELISA) (human collagen type III) | Binding to Type I collagen (SPR) (Type I collagen) | Binding to Type III collagen (SPR) (Type III collagen)
CID 211261: Type II Collagen binding protein of SEQ ID NO: 2 (monomer, motif 25Q-29Y-33W) (IAAKFDEAQSAADSEILHLPNLTEQQRHYFRRWLSDDPSVSTHILTQAQHLNDDQAPK; Col2 binding protein 211261) | 95 | – | – | – | – | – | – | –
CID 211190: type II collagen binding protein of SEQ ID NO: 1 (monomer) (NAASHDEAQLSALVEIWDLPNLTTRQKQKFIYSLQRDPSVSKEVLGEAQKLNDSQAPK; Col2 binding protein 211190) | 95 | not to controls | additionally | specific binding | not to controls | additionally | additional binding | additional binding
